Assay results reported in publication PMC5794259, “Novel ATP-cone-driven allosteric regulation of ribonucleotide reductase via the radical-generating subunit” (eLife, 2018).

Tests used:
[1] = target: the molecule itself; test: SEC; with 100 µM dATP; Superdex 200 10/300 GL at room temperature; 50 mM Tris-HCl pH 7.6, 150 mM KCl, 10 mM MgCl2; NrdB 10 µM, NrdA at rising concentrations
[2] = target: T1, Leeuwenhoekiella blandensis NrdBi (wild type NrdB, radical-generating subunit of class I ribonucleotide … (Leeuwenhoekiella blandensis sp. nov. …, UniProt A3XHF9 1-427)); test: SEC; with 3 mM ATP in sample and buffer; Superdex 200 PC 3.2/30 at 7°C; 50 mM Tris-HCl pH 8, 50 mM KCl, 10% glycerol, 10 mM magnesium acetate, 2 mM DTT; proteins 20 µM each; eluted fractions analysed by SDS PAGE; conditions: both partners purified
T1 construct: NrdBi, radical-generating subunit of the class I RNR of Leeuwenhoekiella blandensis sp. nov. strain MED217; GenBank EAQ51288; amplified from genomic DNA with primers from the start codon to the stop codon; ATP-cone 1-103, linker 104-106, core 107-398, C-terminus 399-427; pET-28a(+) construct with N-terminal hexahistidine tag and thrombin site; Oligomeric state depends on nucleotide: dimer with …
T1 sequence (looked up): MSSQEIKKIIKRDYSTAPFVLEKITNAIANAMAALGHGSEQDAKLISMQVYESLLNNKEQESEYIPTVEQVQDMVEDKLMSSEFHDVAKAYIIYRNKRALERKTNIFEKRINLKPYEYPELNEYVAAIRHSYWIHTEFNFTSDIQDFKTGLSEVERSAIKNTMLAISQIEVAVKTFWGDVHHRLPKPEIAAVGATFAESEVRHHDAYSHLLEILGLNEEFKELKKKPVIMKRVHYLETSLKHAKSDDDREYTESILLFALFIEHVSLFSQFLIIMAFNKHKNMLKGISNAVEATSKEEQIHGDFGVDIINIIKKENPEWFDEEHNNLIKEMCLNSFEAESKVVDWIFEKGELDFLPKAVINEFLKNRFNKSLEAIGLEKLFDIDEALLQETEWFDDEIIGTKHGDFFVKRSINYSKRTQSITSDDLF

[3] = target: the molecule itself; test: crystal structure; NrdB 9.6 mg/ml with 20 mM MgCl2, 2 mM TCEP, 5 mM dATP; 0.2 M CaCl2, 0.1 M Tris pH 8.0, 20% PEG 600, 3% 6-aminohexanoic acid, 20°C; space group P1, one tetramer in the unit cell

B1: Leeuwenhoekiella blandensis NrdAi (NrdA, catalytic subunit of class I ribonucleotide reductase) (enzyme, UniProt A3XHF8 1-600, looked up)
chain: MRENTTKLENSTETNVQHTKDNDLLKARRDALQDATEKNTDEPSFDWLTEHSRSFLAAGYLSEGVSAEERIREIADRAEEILRMPGFSDKFYKYMGEGYFSLASPVWSNFGKKRGLPISCFGSHIDDDMGNILYTQSEVGMMSKLGGGTSGYFGKIRHRGAAVKNNGYASGAVHIMQLFDKMVDVVSQGSVRRGRFSPYLPISHPDIKEFLEIGTEGNSIQQLTHGVTVDSTWMQEMIDGDTDKREVWAKVLQRRGEMGYPYIFYTDNANNGKPDVYKDKGHDIYASNLCTEIMLPSSDEWSFVCVLSSINVLHYDKWKNTDAVETMVCFLDAVLTEFIDKLEEYRDSDNRDHRQTFMFMERAYNFAKSNRALGLGVLGWHSLLQSKRHAFDSQEAYDLNSEIFREIKQRSYKASEELAEKFGEPETLKGYGRRNATLNAIAPTTSSAFILGQVSQGIEPIWSNVYVKDIAKIKTTIKNPFLEELFEEKGMNTPEVWRSVRDNDGSVQHLEFLTEQEKDVFKTYAEIDQMAIIYQAANRQNHIDQGQSINLLVHPDMPIKEINKIHITAWKLGLKSLYYQHSMNAAQKFKQKKECVSCEA
notes: NrdAi, catalytic subunit of the class I RNR of Leeuwenhoekiella blandensis sp. nov. strain MED217; amplified from genomic DNA with primers from the start codon to the stop codon; pET-nrdA with N-terminal hexahistidine tag and thrombin site; no cleavage is told for NrdA (theoretical monomer mass printed as 70.6 kDa); source: E. coli BL21(DE3), pET-28a(+), purified (HisTrap Ni Sepharose, gel …)
stoichiometry N [1]: 2 | stoichiometry N [2]: 1

B2: Leeuwenhoekiella blandensis NrdB, thrombin-cleaved (used for crystallization) (enzyme)
chain: GSHMSSQEIKKIIKRDYSTAPFVLEKITNAIANAMAALGHGSEQDAKLISMQVYESLLNNKEQESEYIPTVEQVQDMVEDKLMSSEFHDVAKAYIIYRNKRALERKTNIFEKRINLKPYEYPELNEYVAAIRHSYWIHTEFNFTSDIQDFKTGLSEVERSAIKNTMLAISQIEVAVKTFWGDVHHRLPKPEIAAVGATFAESEVRHHDAYSHLLEILGLNEEFKELKKKPVIMKRVHYLETSLKHAKSDDDREYTESILLFALFIEHVSLFSQFLIIMAFNKHKNMLKGISNAVEATSKEEQIHGDFGVDIINIIKKENPEWFDEEHNNLIKEMCLNSFEAESKVVDWIFEKGELDFLPKAVINEFLKNRFNKSLEAIGLEKLFDIDEALLQETEWFDDEIIGTKHGDFFVKRSINYSKRTQSITSDDLF
notes: three additional residues (GlySerHis) left at the N-terminus from the thrombin cleavage site; NrdBi of Leeuwenhoekiella blandensis sp. nov. strain MED217; GenBank EAQ51288; Crystallized with 5 mM dATP, 20 mM MgCl2; two dATP per ATP-cone; metal site occupied by Ca2+ from the crystallization medium; also called thrombin-cleaved NrdB; source: E. coli BL21(DE3), purified (HisTrap, gel filtration), …
stoichiometry N [3]: 4
